The chains are these.
B1: CDC37 (cell division cycle 37), wild type, full-length (natural protein)
chain: MVDYSVWDHIEVSDDEDETHPNIDTASLFRWRHQARVERMEQFQKEKEELDRGCRECKRKVAECQRKLKELEVAEGGKAELERLQAEAQQLRKEERSWEQKLEEMRKKEKSMPWNVDTLSKDGFSKSMVNTKPEKTEEDSEEVREQKHKTFVEKYEKQIKHFGMLRRWDDSQKYLSDNVHLVCEETANYLVIWCIDLEVEEKCALMEQVAHQTIVMQFILELAKSLKVDPRACFRQFFTKIKTADRQYMEGFNDELEAFKERVRGRAKLRIEKAMKEYEEEERKKRLGPGGLDPVEVYESLPEELQKCFDVKDVQMLQDAISKMDPTDAKYHMQRCIDSGLWVPNSKASEAKEGEEAGPGDPLLEAVPKTGDEKDVSV

Assay [1] concerns the target sBRAF V600E (solubilized BRAF kinase domain, residues 423-723, V600E) (human, UniProt P15056 423-723, V600E). As to the kind of experiment: ITC. (In general: Isothermal titration calorimetry measures the heat released or taken up as one component is titrated into another.)
Assay [2] concerns the target B1. Put plainly: ITC.

In assay [1], B1 gave a Ka of 2.44e+06 M⁻¹.

B2: sBRAF, solubilized version of BRAF kinase domain (residues 423-723), V600 background (domain or fragment)
chain: QRERKSSSSSEDRNRMKTLGRRDSSDDWEIPDGQITVGQRIGSGSFGTVYKGKWHGDVAVKMLNVTAPTPQQLQAFKNEVGVLRKTRHVNILLFMGYSTKPQLAIVTQWCEGSSLYHHLHASETKFEMKKLIDIARQTARGMDYLHAKSIIHRDLKSNNIFLHEDNTVKIGDFGLATVKSRWSGSHQFEQLSGSILWMAPEVIRMQDSNPYSFQSDVYAFGIVLYELMTGQLPYSNINNRDQIIEMVGRGSLSPDLSKVRSNCPKRMKRLMAECLKKKRDERPSFPRILAEIEELARELSG
In turn, B2 gave a Ka in assay [2] of 965000 M⁻¹.

Source of the values: PMC9313131 (2022).
